{"source": "patent US7223556", "about": "(Harvard, dated 2007)", "molecules": {"B1": {"name": "Flag-tagged βTrCP (other)", "chain": "MDPAEAVLQEKALKFMNSSEREDCNNGEPPRKIIPEKNSLRQTYNSCARLCLNQETVCLASTAMKTENCVAKTKLANGTSSMIVPKQRKLSASYEKEKELCVKYFEQWSESDQVEFVEHLISQMCHYQHGHINSYLKPMLQRDFITALPARGLDHIAENILSYLDAKSLCAAELVCKEWYRVTSDGMLWKKLIERMVRTDSLWRGLAERRGWGQYLFKNKPPDGNAPPNSFYRALYPKIIQDIETIESNWRCGRHSLQRIHCRSETSKGVYCLQYDDQKIVSGLRDNTIKIWDKNTLECKRILTGHTGSVLCLQYDERVIITGSSDSTVRVWDVNTGEMLNTLIHHCEAVLHLRFNNGMMVTCSKDRSIAVWDMASPTDITLRRVLVGHRAAVNVVDFDDKYIVSASGDRTIKVWNTSTCEFVRTLNGHKRGIACLQYRDRLVVSGSSDNTIRLWDIECGACLRVLEGHEELVRCIRFDNKRIVSGAYDGKIKVWDLVAALDPRAPAGTLCLRTLVEHSGRVFRLQFDEFQIVSSSHDDTILIWDFLNDPAAQAEPPRSPSRTYTYISR", "notes": "Untagged βTrCP in lane 1 is the control for the anti-Flag immunoprecipitation; also called F-βTrCP; F-TrCP"}}, "key": {"[1]": {"target": "retinoblastoma tumor suppressor protein (pRB) (UniProt P06400)", "experiment": "cell-based or functional assay"}, "[2]": {"target": "Skp1p (Saccharomyces cerevisiae) (UniProt P52286)", "sequence (P52286 whole entry)": "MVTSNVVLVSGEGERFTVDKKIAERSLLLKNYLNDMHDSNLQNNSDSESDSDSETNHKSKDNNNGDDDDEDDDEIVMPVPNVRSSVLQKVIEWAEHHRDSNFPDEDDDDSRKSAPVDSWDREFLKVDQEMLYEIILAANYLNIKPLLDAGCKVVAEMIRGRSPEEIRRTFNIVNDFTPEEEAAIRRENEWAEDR", "experiment": "cell-based or functional assay"}, "[3]": {"target": "EE-tagged HPV16-E2 (human papillomavirus type 16) (UniProt P03120)", "sequence (P03120 whole entry)": "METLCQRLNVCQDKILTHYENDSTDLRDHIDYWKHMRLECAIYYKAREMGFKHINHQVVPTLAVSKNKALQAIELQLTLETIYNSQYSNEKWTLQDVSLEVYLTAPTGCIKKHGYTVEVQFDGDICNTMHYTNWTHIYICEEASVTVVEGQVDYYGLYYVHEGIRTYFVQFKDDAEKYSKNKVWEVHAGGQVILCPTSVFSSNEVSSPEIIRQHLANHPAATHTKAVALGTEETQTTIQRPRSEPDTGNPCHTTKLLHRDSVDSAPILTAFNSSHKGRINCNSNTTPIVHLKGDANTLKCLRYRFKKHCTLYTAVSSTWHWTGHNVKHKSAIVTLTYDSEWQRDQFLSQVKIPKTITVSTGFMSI", "experiment": "cell-based or functional assay"}, "[4]": {"target": "T1, retinoblastoma tumor suppressor protein (pRB) (UniProt P06400 1-928)", "T1 construct": "For the co-immunoprecipitation it was translated in vitro and 35S-labelled; In yeast Y81 cells it was expressed from plasmid p2202TRB", "T1 sequence": "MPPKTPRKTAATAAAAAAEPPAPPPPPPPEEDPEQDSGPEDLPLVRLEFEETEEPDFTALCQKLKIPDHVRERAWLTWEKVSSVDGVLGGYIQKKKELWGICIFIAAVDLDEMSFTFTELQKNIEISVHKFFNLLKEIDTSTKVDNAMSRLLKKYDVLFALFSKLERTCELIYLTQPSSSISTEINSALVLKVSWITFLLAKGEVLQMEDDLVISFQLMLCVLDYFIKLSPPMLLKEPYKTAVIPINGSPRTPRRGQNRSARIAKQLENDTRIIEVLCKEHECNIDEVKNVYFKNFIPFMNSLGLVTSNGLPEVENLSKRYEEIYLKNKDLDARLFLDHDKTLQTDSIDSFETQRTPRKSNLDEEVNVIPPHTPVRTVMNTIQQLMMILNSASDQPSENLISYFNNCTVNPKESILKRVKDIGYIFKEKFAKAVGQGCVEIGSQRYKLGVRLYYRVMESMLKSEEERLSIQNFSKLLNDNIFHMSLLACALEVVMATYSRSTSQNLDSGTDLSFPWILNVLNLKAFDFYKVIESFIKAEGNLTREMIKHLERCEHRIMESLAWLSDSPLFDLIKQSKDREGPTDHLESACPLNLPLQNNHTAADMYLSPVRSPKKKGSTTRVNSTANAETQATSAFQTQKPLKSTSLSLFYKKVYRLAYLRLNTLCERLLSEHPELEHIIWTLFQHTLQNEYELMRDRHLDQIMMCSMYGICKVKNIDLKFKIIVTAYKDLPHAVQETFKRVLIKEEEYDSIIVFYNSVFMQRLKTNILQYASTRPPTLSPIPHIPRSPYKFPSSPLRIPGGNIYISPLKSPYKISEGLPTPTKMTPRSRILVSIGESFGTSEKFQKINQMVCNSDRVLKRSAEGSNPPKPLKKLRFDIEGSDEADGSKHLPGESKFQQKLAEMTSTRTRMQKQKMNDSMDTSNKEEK", "experiment": "co-immunoprecipitation of in vitro translated 35S-labelled proteins with anti-Flag M2 antibody, SDS PAGE"}}}
{"molecule": "Cdc4p^F/WD-E7N (from UniProt P03129 2-35)", "values": [{"measurement": "half life of pRB after promoter shut-off in Y81 yeast cells", "setting": "[1]", "result": 70, "unit": "minutes"}]}
{"molecule": "Cdc4p(ΔF)", "values": [{"measurement": "half life of the mutant Cdc4p protein after promoter shut-off in KY130 cells", "setting": "[2]", "result": "> 60", "unit": "min"}]}
{"molecule": "Cdc4p(G300D) (from UniProt P07834 1-779)", "values": [{"measurement": "half life of the mutant Cdc4p protein after promoter shut-off in KY130 cells", "setting": "[2]", "result": "> 60", "unit": "min"}]}
{"molecule": "Cdc4p^F/WD-E1C (from UniProt P03114 424-649)", "values": [{"measurement": "half life of EE-E2 after promoter shut-off in INVSc1 yeast cells", "setting": "[3]", "result": 16, "unit": "min"}]}
{"molecule": "Cdc4p^F/WD-βgal (from UniProt P00722 10-1024)", "values": [{"measurement": "half life of the βgal fusion after promoter shut-off in KY130 cells", "setting": "[2]", "result": 35, "unit": "min"}]}
{"molecule": "B1", "values": [{"measurement": "binding result", "setting": "[4]", "result": "no binding"}]}
